Source: US20250043020A1

Legend:
[1] = biological target: human Ankyrin Repeat Domain-Containing Protein 30A (NY-BR-1), full-length, on cells (human) (UniProt Q9BXX3); assay: flow cytometry on NY-BR-1 transfected Bosc23 cells; PE anti-mouse Fcγ subclass I secondary
[2] = biological target: human Ankyrin Repeat Domain-Containing Protein 30B (NY-BR-1.1), full-length, on cells (human) (UniProt Q9BXX2); assay: flow cytometry on NY-BR-1.1 transfected Bosc23 cells; PE anti-mouse Fcγ subclass I secondary
Sequence of UniProt Q9BXX2 (Q9BXX2 whole entry, the tested form may be a part): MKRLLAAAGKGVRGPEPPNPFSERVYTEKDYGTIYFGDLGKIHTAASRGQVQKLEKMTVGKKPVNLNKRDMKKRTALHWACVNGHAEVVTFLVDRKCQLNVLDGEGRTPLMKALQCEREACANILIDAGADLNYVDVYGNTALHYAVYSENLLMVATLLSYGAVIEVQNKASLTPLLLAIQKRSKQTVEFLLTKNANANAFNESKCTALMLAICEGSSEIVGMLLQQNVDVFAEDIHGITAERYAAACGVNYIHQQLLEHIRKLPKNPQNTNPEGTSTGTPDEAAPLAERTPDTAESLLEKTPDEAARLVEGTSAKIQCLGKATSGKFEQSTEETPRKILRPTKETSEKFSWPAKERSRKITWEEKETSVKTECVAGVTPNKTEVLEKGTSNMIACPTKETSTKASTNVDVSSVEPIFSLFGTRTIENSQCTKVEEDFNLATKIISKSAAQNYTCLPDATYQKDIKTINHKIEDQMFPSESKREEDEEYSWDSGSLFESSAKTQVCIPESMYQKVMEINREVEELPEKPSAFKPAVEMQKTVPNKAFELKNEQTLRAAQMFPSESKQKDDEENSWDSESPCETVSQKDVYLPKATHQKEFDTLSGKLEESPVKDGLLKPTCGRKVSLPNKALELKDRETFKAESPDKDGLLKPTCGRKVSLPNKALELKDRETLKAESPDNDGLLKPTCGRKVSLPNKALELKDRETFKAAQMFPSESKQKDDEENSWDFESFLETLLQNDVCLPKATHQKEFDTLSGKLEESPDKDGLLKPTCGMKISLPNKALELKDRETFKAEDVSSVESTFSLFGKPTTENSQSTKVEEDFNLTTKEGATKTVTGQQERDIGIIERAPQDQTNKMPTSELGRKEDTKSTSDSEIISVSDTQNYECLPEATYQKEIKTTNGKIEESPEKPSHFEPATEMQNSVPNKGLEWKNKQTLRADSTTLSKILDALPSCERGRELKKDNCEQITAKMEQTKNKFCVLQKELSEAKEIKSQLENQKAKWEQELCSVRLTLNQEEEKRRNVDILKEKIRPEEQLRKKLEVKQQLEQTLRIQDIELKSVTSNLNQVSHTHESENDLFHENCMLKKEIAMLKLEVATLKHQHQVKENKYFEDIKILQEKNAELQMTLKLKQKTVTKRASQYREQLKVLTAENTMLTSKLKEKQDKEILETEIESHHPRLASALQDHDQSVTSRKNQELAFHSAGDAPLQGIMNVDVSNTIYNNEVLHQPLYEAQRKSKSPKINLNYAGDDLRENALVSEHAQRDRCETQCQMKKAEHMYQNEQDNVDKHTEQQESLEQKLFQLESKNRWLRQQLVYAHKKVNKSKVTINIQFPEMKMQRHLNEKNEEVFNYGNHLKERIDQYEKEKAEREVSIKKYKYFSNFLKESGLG

Sequence of UniProt Q9BXX3 (Q9BXX3 whole entry, the tested form may be a part): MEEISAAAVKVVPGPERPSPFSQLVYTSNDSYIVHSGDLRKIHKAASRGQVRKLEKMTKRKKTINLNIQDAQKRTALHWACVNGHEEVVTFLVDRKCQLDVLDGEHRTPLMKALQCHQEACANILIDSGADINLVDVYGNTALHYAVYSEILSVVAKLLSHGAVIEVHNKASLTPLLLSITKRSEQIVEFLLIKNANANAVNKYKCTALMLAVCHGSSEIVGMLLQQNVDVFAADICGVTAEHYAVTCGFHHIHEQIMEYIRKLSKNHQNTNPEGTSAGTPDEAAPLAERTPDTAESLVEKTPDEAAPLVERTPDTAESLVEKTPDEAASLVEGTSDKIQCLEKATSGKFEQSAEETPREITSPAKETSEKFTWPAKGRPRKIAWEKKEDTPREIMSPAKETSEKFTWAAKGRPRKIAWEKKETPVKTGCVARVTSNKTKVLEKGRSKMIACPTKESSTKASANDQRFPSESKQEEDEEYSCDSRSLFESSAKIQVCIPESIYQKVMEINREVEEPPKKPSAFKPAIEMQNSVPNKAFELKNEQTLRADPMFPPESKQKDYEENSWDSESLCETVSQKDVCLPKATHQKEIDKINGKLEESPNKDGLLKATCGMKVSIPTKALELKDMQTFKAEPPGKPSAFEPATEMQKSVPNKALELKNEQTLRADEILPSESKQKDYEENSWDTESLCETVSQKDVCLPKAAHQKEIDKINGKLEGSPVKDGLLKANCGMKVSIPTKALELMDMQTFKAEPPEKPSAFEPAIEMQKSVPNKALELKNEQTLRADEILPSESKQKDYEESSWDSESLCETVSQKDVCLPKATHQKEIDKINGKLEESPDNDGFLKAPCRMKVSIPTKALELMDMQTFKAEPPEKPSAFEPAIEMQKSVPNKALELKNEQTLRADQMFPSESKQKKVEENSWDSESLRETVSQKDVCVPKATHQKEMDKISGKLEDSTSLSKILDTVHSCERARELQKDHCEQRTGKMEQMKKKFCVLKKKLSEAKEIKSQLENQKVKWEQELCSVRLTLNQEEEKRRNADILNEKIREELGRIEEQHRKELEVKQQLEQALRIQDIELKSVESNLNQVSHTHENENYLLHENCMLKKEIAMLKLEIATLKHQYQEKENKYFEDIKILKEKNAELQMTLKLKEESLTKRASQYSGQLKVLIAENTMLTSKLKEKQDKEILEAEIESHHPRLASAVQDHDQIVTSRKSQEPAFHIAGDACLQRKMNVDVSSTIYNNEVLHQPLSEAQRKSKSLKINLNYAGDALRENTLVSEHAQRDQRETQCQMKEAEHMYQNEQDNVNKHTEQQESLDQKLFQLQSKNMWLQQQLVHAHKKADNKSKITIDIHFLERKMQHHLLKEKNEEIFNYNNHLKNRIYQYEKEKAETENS

For “isotype control (Example 1, flow cytometry with full-length murine antibodies) (antibody)”, the MFI [1] was 74 and the MFI [2] was 90.
